According to the supplement of paper PMC10724198:
± gives the standard deviation of the averaged measurements.

Test system: Saccharomyces cerevisiae
Assay: protein stability index of tFT-peptide fusion (C-terminal peptide) (PSI (0-1 scale)); higher = more stable (slower turnover)
Conditions: genetic background: wild type; temperature: 30 C
Method: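 Multiplexed protein stability (MPS) profiling in S. cerevisiae. Random 12-aa peptides (tFT-X12 library) are fused to the C-terminus of a sfGFP-mCherry tandem fluorescent timer, after mCherry and a GGGS linker. Cells are FACS-sorted into 8 mCherry/sfGFP bins and deep-sequenced. The protein stability index (PSI) is the read-weighted bin average, scaled from 0 (unstable) to 1 (stable). Only peptides with >10 reads are reported; cells were grown at 30 °C in SC-His with glucose.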
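Further: PSI is a weighted mean of sequencing reads over stability bins, variants kept only with over 10 reads, mCherry proximal and sfGFP distal, peptide attached via GGGS linker.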

| Sequence | protein stability index |
| --- | --- |
| PHAHTAPPPVPP | 0.601 ± 0.017 |
| SFITFGGWLGGM | 0.705 ± 0.14 |
| PLASPYRLCPVP | 0.624 ± 0.044 |
| PLPSPLLPRSVL | 0.705 ± 0.045 |
| AWGYFTDTRERY | 0.687 ± 0.036 |
| GETGGACGVWAG | 0.685 ± 0.066 |
| AIKCSDTLLTWV | 0.7194 ± 0.0042 |
| EHKRQRPVTRLP | 0.672 ± 0.016 |
| GGRGAVSGIVRK | 0.613 ± 0.014 |
| DIRFSAARRPTG | 0.6627 ± 0.0053 |
| SPLPPPLPPFPP | 0.6171 ± 0.0056 |
| APSVSHAPSRLL | 0.706 ± 0.023 |
| RIRRITAGRQRY | 0.793 ± 0.067 |
| RSYFGLACPSVS | 0.626 ± 0.03 |
| RGHKATNICHSV | 0.721 ± 0.042 |
| GRPYEHVVDPWR | 0.733 ± 0.029 |
| PPSLLPFDPSLP | 0.708 ± 0.082 |
| IQAVHYTARVPN | 0.664 ± 0.072 |
| KPKRIRCDRSPH | 0.694 ± 0.019 |
| APPDQPEEGTRA | 0.6332 ± 0.0033 |
| RLKGSPHPVFLY | 0.753 ± 0.055 |
| PSLLFILPSPLP | 0.689 ± 0.015 |
| CLPQCLNPDFAE | 0.645 ± 0.0066 |
| WGFGRCELMLGS | 0.708 ± 0.035 |
| SRSSPLYRRGVR | 0.679 ± 0.089 |

| Sequence | protein stability index |
| --- | --- |
| APVHPPPGFLLP | 0.695 ± 0.023 |
| TGQVLKYVVGSQ | 0.711 ± 0.055 |
| QGGCAATRARGS | 0.631 ± 0.0033 |
| ARLPLPGSPPFS | 0.719 ± 0.0029 |
| RLSIEVREWGDG | 0.642 ± 0.075 |
| GASVWGRGTRKI | 0.6902 ± 0.0059 |
| YIHQRKGRKPNE | 0.622 ± 0.057 |
| SRGSSGHLVNLV | 0.607 ± 0.049 |
| RSRAYDSLPADQ | 0.682 ± 0.058 |
| KKYKKIGYRRIP | 0.773 ± 0.12 |
| LRVVWNLSSRAI | 0.636 ± 0.059 |
| EDLFELPNSNFS | 0.73653 ± 0.00022 |
| QRGGTWGALWEG | 0.671 ± 0.02 |
| LPPSLPPRLPPP | 0.658 ± 0.04 |
| STCRCGGFRNGS | 0.762 ± 0.068 |
| RCAQKSMALLSD | 0.68 ± 0.0097 |
| WVPCGYIERAPL | 0.582 ± 0.05 |
| AIIKADKIRRKK | 0.6751 ± 0.0028 |
| PPLAMVLYSLFE | 0.556 ± 0.013 |
| EAGGRWEVSCQA | 0.6133 ± 0.0017 |
| SLCLPFPSSPPP | 0.677 ± 0.0083 |
| QNKNPNRTEKSK | 0.701 ± 0.056 |
| PPHSHCPSAPHN | 0.643 ± 0.082 |
| AINAHGISKSYA | 0.688 ± 0.019 |
| AGHILSDGTYLP | 0.826 ± 0.13 |

| Sequence | protein stability index |
| --- | --- |
| LAGVSTPLPPPP | 0.696 ± 0.029 |
| KESEKRKRENKN | 0.698 ± 0.025 |
| SGRGWILCAYRV | 0.632 ± 0.024 |
| STGRLQLGNCLT | 0.635 ± 0.015 |
| LGLFECAFLDRS | 0.736 ± 0.013 |
| DFPLISAHNTVC | 0.655 ± 0.033 |
| RKKRNKQENETK | 0.748 ± 0.013 |
| VRISGLSALPHF | 0.70793 ± 9.5e-05 |
| ERTSSSWPPPAV | 0.72 ± 0.09 |
| TGSIMYDLEVDK | 0.6795 ± 0.0039 |
| SCVWVPGCGPSR | 0.679 ± 0.0072 |
| PAPTPAPNPNPH | 0.74 ± 0.11 |
| RGMGPGAFVSGQ | 0.677 ± 0.077 |
| SATLRCASLSFC | 0.679 ± 0.014 |
| CCLGCFLKHGIV | 0.652 ± 0.035 |
| PVPPLPPRPPPL | 0.619 ± 0.11 |
| SGWEVAGGCDNK | 0.692 ± 0.0021 |
| VFDGSVSWARHD | 0.6529 ± 0.0053 |
| RVRRWGSSTLVG | 0.676 ± 0.041 |
| VLQSTTNPPTSW | 0.631 ± 0.05 |
| CILYTGYDLGNV | 0.7 ± 0.021 |
| GVGWRGGCEGGV | 0.711 ± 0.062 |
| ERGREVVSRGVQ | 0.724 ± 0.014 |
| GMGLWCLSGLFP | 0.7131 ± 0.0067 |
| LPPPPFPPPKPF | 0.683 ± 0.0084 |

| Sequence | protein stability index |
| --- | --- |
| VVCFGNFGGVRV | 0.778 ± 0.049 |
| PLAMRVALFSPP | 0.651 ± 0.0089 |
| SVVGRLVGGFRW | 0.706 ± 0.021 |
| PPPPSPSPLPPS | 0.751 ± 0.015 |
| LPLPPLPPGMLS | 0.747 ± 0.073 |
| SGFLAKNIKQLC | 0.578 ± 0.042 |
| RQANQVSTSAEN | 0.726 ± 0.11 |
| LGRNLGKDPVEV | 0.593 ± 0.11 |
| SPSLPQLLDPPS | 0.711 ± 0.011 |
| PGTEVSDTLEVL | 0.6894 ± 0.0045 |
| RMSLGLHGVMRC | 0.683 ± 0.045 |
| QVFVRRSSPRVL | 0.666 ± 0.014 |
| PASLPPRAPPPL | 0.664 ± 0.019 |
| CSRSPASAPRPH | 0.688 ± 0.018 |
| VPCILLFSHFKH | 0.619 ± 0.042 |
| PPSLEPFSPSPR | 0.639 ± 0.013 |
| APRPPPCPRPGT | 0.7499 ± 0.003 |
| PLSPPPRRPPSP | 0.655 ± 0.022 |
| CCLASVSADKVV | 0.703 ± 0.025 |
| PRGPPGILSRPP | 0.6736 ± 0.00089 |
| PSEAPEAPLPRP | 0.731 ± 0.082 |
| TNGYWVIACKKF | 0.672 ± 0.069 |
| ARSHSPPPPRPP | 0.6723 ± 0.0029 |
| RRNSAGCRLDKM | 0.662 ± 0.09 |
| QKRIALNSQKNT | 0.688 ± 0.048 |

| Sequence | protein stability index |
| --- | --- |
| LLFFSLFFSPLP | 0.642 ± 0.041 |
| LTLCYGRLPPRL | 0.771 ± 0.022 |
| GSWGEGGVAVGG | 0.653 ± 0.032 |
| GGRGRGARPGGR | 0.647 ± 0.027 |
| HTRPTALLPLSR | 0.701 ± 0.014 |
| FILLFGCFGFFC | 0.557 ± 0.051 |
| PAVLLGPCARVP | 0.699 ± 0.04 |
| LHPTPPPVLAPP | 0.654 ± 0.12 |
| VMYLSGCFHSQI | 0.659 ± 0.059 |
| SRLLPPLPPLSP | 0.767 ± 0.097 |
| GVLGCCGLAWRG | 0.697 ± 0.073 |
| PESGPVRLRTPP | 0.624 ± 0.029 |
| RAPDFYPTHPLA | 0.701 ± 0.057 |
| SRFVRNRYGRVV | 0.648 ± 0.027 |
| ASSRPQRKSGKR | 0.77 ± 0.0086 |
| SRVPTSRARKRS | 0.7001 ± 0.0042 |
| YGGGVWRGVALG | 0.6914 ± 0.0052 |
| PAHLFVPSSLFR | 0.702 ± 0.042 |
| DRKWSPGSGVVD | 0.696 ± 0.051 |
| SPSRHPSPPKPP | 0.607 ± 0.021 |
| TLEHRHPAIHPE | 0.723 ± 0.046 |
| LFFRFGRWFLGF | 0.671 ± 0.027 |
| FCYWCLGWGVGL | 0.692 ± 0.059 |
| PRPPAGSFPSSL | 0.7 ± 0.053 |
| SRPLPLPPRPLP | 0.647 ± 0.023 |

| Sequence | protein stability index |
| --- | --- |
| LLPLPPPPPPPP | 0.685 ± 0.063 |
| RPFHLLPPPPPL | 0.73 ± 0.019 |
| PRLPHPPPPLPL | 0.669 ± 0.079 |
| IGCCSGYGGERG | 0.691 ± 0.018 |
| DHCRTQHLGLEM | 0.725 ± 0.015 |
| PLPPPLLPRTRL | 0.694 ± 0.11 |
| STPDIRYFPPWC | 0.706 ± 0.027 |
| LIPRCLIPVTRY | 0.655 ± 0.018 |
| TEKTEAKNCNTK | 0.697 ± 0.0089 |
| WPVRNRIQPPPR | 0.705 ± 0.051 |
| KQANTKINSQKT | 0.712 ± 0.036 |
| LVFGVSRRLGRG | 0.65 ± 0.01 |
| VRLMARFESFLW | 0.69 ± 0.023 |
| LRRKSLHFSFPF | 0.618 ± 0.054 |
| GEQSYGGHSVQT | 0.642 ± 0.054 |
| IRQPNHSIGPHG | 0.719 ± 0.024 |
| SSLPPPRLFLLP | 0.697 ± 0.085 |
| DRRARTDEKKKK | 0.646 ± 0.01 |
| QIQKINTKSKKN | 0.699 ± 0.021 |
| REWCSGGPCAAS | 0.721 ± 0.043 |
| VPDGVAGRRPDR | 0.679 ± 0.056 |
